Test results from US20240288446A1 (H PITAUX UNIVERSITAIRES DE STRASBOURG, published 2024).

Molecular target: T1, α1-proteinase inhibitor (human, UniProt P01009 25-418)
T1 construct: also called α1-PI; α1PI
Experiment: ELISA of HNE-α1-PI complexes in human plasma

T1 sequence (P01009 25-418 limits assumed): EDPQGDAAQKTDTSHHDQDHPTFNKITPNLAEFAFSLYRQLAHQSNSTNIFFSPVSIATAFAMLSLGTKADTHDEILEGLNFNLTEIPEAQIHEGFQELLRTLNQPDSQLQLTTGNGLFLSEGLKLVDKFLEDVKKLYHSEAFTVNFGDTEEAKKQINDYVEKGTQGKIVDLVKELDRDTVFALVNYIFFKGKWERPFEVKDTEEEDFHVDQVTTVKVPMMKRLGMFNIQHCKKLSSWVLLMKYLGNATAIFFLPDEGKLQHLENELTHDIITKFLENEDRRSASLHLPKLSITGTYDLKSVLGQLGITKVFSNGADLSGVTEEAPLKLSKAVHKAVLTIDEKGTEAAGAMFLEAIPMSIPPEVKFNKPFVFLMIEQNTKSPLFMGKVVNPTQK

binding result: binds
B1: Human neutrophil elastase (enzyme, UniProt P08246 30-247, looked up)
chain: IVGGRRARPHAWPFMVSLQLRGGHFCGATLIAPNFVMSAAHCVANVNVRAVRVVLGAHNLSRREPTRQVFAVQRIFENGYDPVNLLNDIVILQLNGSATINANVQVAQLPAQGRRLGNGVQCLAMGWGLLGRNRGIASVLQELNVTVVTSLCRRSNVCTLVRGRQAGVCFGDSGSPLVCNGLIHGIASFVRGGCASGLYPDAFAPVAQFVNWIDSIIQ
notes: Tested free (purified, in supernatants or in plasma) and as an HNE-DNA complex on NETs; also called HNE; leukocyte elastase
